Entries after “also recorded” stand apart in the source; their conditions may differ. Where a name gives a salt, the structure may show the parent alone.
Experiments:
[1] = system: bone endothelial cells (BECs); test: DFM treatment of cultured primary bone endothelial cells, qPCR mRNA analysis; format: cell-based, mouse; settings: isolated primary bone endothelial cells; DFM 6.25 mg/ml of culture medium, 7 hrs; qPCR vs vehicle
Description: Tibiae and femurs from wild-type mice or mice expressing endothelial specific reporters (Flk1 GFP and Cdh5 mtmg mice) or wild-type mice were collected in sterile Ca^2+ and Mg^2+ free PBS, crushed with mortar and pestle, digested with Collagenase A (Sigma) to obtain a single cell suspension. ECs were then MACS sorted using endomucin antibody (cat. no. SC-65495) and Dynabeads sheep anti-Rat IgG (Invitrogen). Sorted ECs were then plated on dishes coated with fibronectin and cultured in endothelial cell growth medium (EBM-2, Clonetics; Lonza) supplemented with EGM-2 SingleQuots (CC-4176, Clonetic; Lonza). At first passage, cells were again MACS sorted with endomucin antibody and plated for culture. Cells were fed every third day and passaged upon confluency. […]
For the analysis of mRNA expression levels in type H or type L endothelium, CD31^hi/Emcn^hi and CD31^lo/Emcn^lo cells were sorted by FACS directly into the lysis buffer of the RNeasy Mini Kit (QIAGEN). […] Quantitative PCR (qPCR) was performed using TaqMan gene expression assays on ABI PRISM 7900HT Sequence Detection System. […]
For the analysis of mRNA expression levels, pure total bone endothelial cells were flow-sorted directly into the lysis buffer of RNeasy Mini Kit (QIAGEN). […] Quantitative PCR (qPCR) was performed using TaqMan gene expression assays on ABI PRISM 7900HT Sequence Detection System. […]

[2] = system: type H endothelium (CD31^hi/Emcn^hi vessels); test: DFM treatment of aged mice, CD31/Osterix immunostaining of tibia sections; format: in vivo; settings: aged 64 to 70 week-old mice; DFM i.p. every alternate day, 15 mg/ml per mouse, four weeks; vs vehicle control
From the text: 3-4 weeks old male C57BL/6J mice were used for experiments involving analysis of juvenile mice. For the characterization of changes during aging, 9-11 week-old and 60-70 week-old C57BL/6J males were used as adults and aged mice, respectively. All EC-specific gene deletions were generated using Cdh5(PAC)-CreERT2 transgenic mice, which were interbred with conditional mutants carrying loxP-flanked Hif1α alleles (Hif1α^lox/lox). For experiments, Cdh5(PAC)-CreERT2^T/+ Hif1α^lox/lox were mated with Hif1α^lox/lox females. To induce Cre activity and gene deletion, pups were injected with 500 μg tamoxifen (Sigma, T5648) intraperitoneally everyday from postnatal day (P) 10 to P14. Femurs and tibiae from Cdh5(PAC)-CreERT2^T/+ Hif1α^lox/lox (Hif1α^iΔEC) mutants and Cre-negative (Hif1α^lox/lox) controls were collected on P28 after euthanasia. The same methodology was followed for gene deletion experiments involving conditional Vhl mice. For the specific genetic labeling of metaphyseal vasculature Cdh5(PAC)-CreERT2^T/+ mice were mated with Rosa26-mG/mT reporter line. At P29, Cdh5(PAC)-CreERT2^T/+/R26-mG/mT^d/+ mice received a single dose of 50 μg tamoxifen and were analyzed either 24 hrs (1 day) later or 40 days later. […]
For phenotypic analysis, mutant and littermate control samples were always processed, sectioned, stained, imaged and analysed together at the same conditions and settings. […]

long bone = test: DFM treatment of aged mice, qPCR of osteoprogenitor and osteoblast markers in long bone; format: in vivo, mouse; settings: DFM-treated vs control
Description: For DFM treatment, freshly prepared deferoxamine mesylate (Sigma) in water was injected intraperitoneally every alternate day at the dose of 15 mg/ml per mouse over four weeks. For μ-CT analysis, this treatment was continued for five weeks. Animals in the control group were injected with same amount of sterile water.
For the analysis of mRNA expression levels in type H or type L endothelium, CD31^hi/Emcn^hi and CD31^lo/Emcn^lo cells were sorted by FACS directly into the lysis buffer of the RNeasy Mini Kit (QIAGEN). Total RNA was isolated according to manufacturer's protocol. A total of 100 ng RNA per reaction was used to generate cDNA with the iScript cDNA Synthesis System (Bio-Rad). Quantitative PCR (qPCR) was performed using TaqMan gene expression assays on ABI PRISM 7900HT Sequence Detection System. The FAM-conjugated TaqMan probes Tgfb1, Tgfb3, Fgf1, Pdgfa, Pdgfb and Kitl were used along with TaqMan Gene Expression Master Mix (Applied Biosystems). Gene expression assays were normalized to endogenous VIC-conjugated Actb probes as standard. For analysis of mRNA expression levels from whole bones, dissected femurs were immediately crushed finely, digested with collagenase, centrifuged to obtain a pellet, which was then lysed into lysis buffer of RNeasy Mini Kit (QIAGEN). […]

[3] = DFM treatment of aged mice, μ-CT analysis of tibia; format: in vivo, mouse; settings: 6 weeks of DFM treatment, compared to aged control mice
Description: […] […] Animals in the control group were injected with same amount of sterile water.
Tibiae were collected, and the attached soft tissue was removed thoroughly and fixed in 4% paraformaldehyde. The fixed tibiae were analyzed using micro-CT (μCT 35) and software IPL V5.15 at Scanco Medical AG, Switzerland. A voxel size of 12 μm was chosen in all three spatial dimensions. For each sample, 148 from 232 slices were evaluated covering a total of 1.776 mm at a voltage of 70kVp, intensity 114 μA, integration time 1200 ms.

[4] = system: murine mesenchymal progenitors; test: Osteoblastic differentiation of cultured murine mesenchymal progenitors with Noggin; format: cell-based, mouse; settings: in vitro, recombinant Noggin
Rbpj^iΔEC mice [5] = test: Systemic recombinant Noggin in Rbpj^iΔEC mice, immunostaining of tibia sections; format: in vivo, mouse
From the text: For Rbpj deletion in the postnatal vasculature, mice carrying loxP-flanked Rbpj gene (Rbpj^floxed) were interbred with mice expressing endothelial specific tamoxifen inducible CreERT2 i.e. Cdh5(PAC)-CreERT2. The males with genotype Rbpj^floxed/floxed Cdh5(PAC)-CreERT2^T/+ were interbred with Rbpj^floxed/floxed females to generate litters with Rbpj^floxed/floxed Cdh5(PAC)-CreERT2^T/+ (Rbpj^iΔEC) and Rbpj^floxed/floxed (control) genotypes. To induce Cre activity and gene deletion, all the litters were injected with 500 μg tamoxifen (Sigma, T5648) intraperitoneally everyday from P10 to P14. Femur and tibia were collected from these animals for analysis on P28 after euthanasia. The same methodology was followed for all gene deletion experiments of Fbxw7 ^iΔEC, Dll^iΔEC, Dll4^iΔEC, Jag1^iΔEC and Rbpj^iΔOB. For osteoblast specific loss of function experiments, Col1α1-CreERT2 mice (embryos purchased from Institut Clinique de la Souris, France) were interbred with Rbpj^floxed/floxed mice. Further, Rbpj floxed/floxed Col1a1-CreERT2^T/+ males were interbred with Rbpj^floxed/floxed females to generate litters with Rbpj^floxed/floxed Col1aCreERT2^T/+ (Rbpj^iΔOB) and Rbpj^floxed/floxed (control) genotypes.
(§1) For experiments involving Noggin treatment, both control and Rbpj^iΔEC mice were injected intraperitoneally once daily with 500 μg/kg recombinant Noggin (1967-NG, R&D Systems) dissolved in PBS in a volume of 50 μl per dose. Another set of control and Rbpj^iΔEC mice was injected with 50ul PBS for experimental control. All protein injections were done from P15 to P27, after tamoxifen treatment (P10-P14) before the day of analysis (P28).
Freshly dissected bone tissues collected from wild-type mice or from mutants and their control littermates were immediately fixed in ice-cold 4% paraformaldehyde solution for 4 hrs. Decalcification was carried out with 0.5M EDTA at 4° C. with constant shaking and decalcified bones were immersed into 20% sucrose and 2% polyvinylpyrrolidone (PVP) solution for 24 hr. Finally, the tissues were embedded and frozen in 8% gelatin (porcine) in presence of 20% sucrose and 2% PVP. For immunofluorescent stainings and morphological analyses, sections were generated using low-profile blades on a Leica CM3050 cryostat.
For phenotypic analysis, mutant and littermate control samples were always processed, sectioned, stained, imaged and analysed together at the same conditions and settings. For immunostaining, bone sections were air-dried, permeabilised for 10 min in 0.3% Triton X-100, blocked in 5% donkey serum at room temperature for 30 min, and probed with the primary antibodies diluted in 5% donkey serum in PBS for 2 hr at room temperature (RT) or overnight at 4° C.
Following are the details of primary antibodies used: Endomucin (sc-65495, Santa Cruz) used at 1:100 dilution; Pecam1 conjugated to Alexa fluor 488 (FAB3628G, R&D Systems) used at dilution 1:100; Pecam1 (553370, BD Pharmingen) used at 1:100 dilution; Osterix (sc-22536-R, Santa Cruz) used at dilution 1:200; Runx2 (MAB2006, R&D Systems) used at dilution 1:200; alpha SMA-Cy3 (C6198, Sigma) used at dilution 1:100; Hif1α (ab65979, Abcam) used at dilution 1:100; Collagen type 1 (AB675P; Millipore); Osteopontin (AF808, R&D Systems) used at dilution of 1:200, Mct4 (sc-50329 Santa Cruz) used at dilution of 1:100 and Glut1 (07-1401, Millipore) used at dilution of 1:100, NG2 Chondroitin Sulphate Proteoglycan (AB5320, Millipore) used at a dilution of 1:100.

Rbpj^iΔEC mice [6] = test: Systemic recombinant Noggin in Rbpj^iΔEC mice, calcein double labelling; format: in vivo, mouse; settings: Noggin 500 μg/kg i.p. once daily P15 to P27, 7 day interval
Description: as §1
Calcein double labeling was performed to calculate mineral apposition rate (MAR).
Mice were given intraperitoneal injections of 10 mg/kg calcein (Sigma, C0875) dissolved in 2% sodium bicarbonate solution at 10th day and 3rd day before euthanasia. Bones were fixed in 4% PFA, embedded in 8% gelatin and 2% PVP and cryosectioned. Single plane images were acquired from the sections using LSM 780 (Carl Zeiss). Mineral Apposition Rate (MAR) is the amount of bone formed during a particular time interval. It is calculated using the distance between the midpoints of two labels divided by time interval (7days).

[7] = Rbpj^iΔEC mice, Noggin 500 μg/kg i.p. once daily P15 to P27, analysis P28, vs saline-treated mutants

Molecule | expression of growth factor mRNAs Pdgfa, Pdgfb, Fgf1, Tgfb1, Tgfb3 [1] | transcripts for CD31 and Endomucin [1] | Osterix-positive cells (osteoprogenitors) in association with type H vessels [2] | type H endothelium (CD31^hi/Emcn^hi vessels) in long bone [2] | expression levels of mRNAs Sp7, Bglap and lbsp in long bone (long bone) | bone mass (μ-CT) [3] | differentiation of primary mesenchymal cells into osteoblasts [4] | alkaline phosphatase (ALP) expression ([4]; 28 days of differentiation) | mineral nodule formation (Alizarin staining; osteoblast maturation) ([4]; 28 days of differentiation) | Endomucin staining intensity (Rbpj^iΔEC mice [5]; Noggin-treated Rbpj^iΔEC tibia sections) | abundance of Runx2+ early osteoprogenitors in metaphysis (Rbpj^iΔEC mice [5]; [7]) | number of Osterix+ (Osx+) cells in metaphysis (Rbpj^iΔEC mice [5]; [7]) | organization of the Rbpj^iΔEC metaphysis (Rbpj^iΔEC mice [5]; [7]) | organization of the Rbpj^iΔEC bone vasculature (endothelial column and arch structures) (Rbpj^iΔEC mice [5]; Rbpj^iΔEC mice, Noggin 500 μg/kg i.p. once daily P15 to P27, endomucin immunostaining) | trabecular bone formation (osteopontin immunostaining) (Rbpj^iΔEC mice [5]; Rbpj^iΔEC mice, recombinant Noggin vs Saline) | bone formation and mineral apposition rate (Rbpj^iΔEC mice [6]) | bone formation and mineral apposition rate (Rbpj^iΔEC mice [6]; listed as noggin)
CC(=O)N(O)CCCCCNC(=O)CCC(=O)N(O)CCCCCNC(=O)CCC(=O)N(O)CCCCCN [DFM, deferoxamine mesylate] | induction; also recorded: increase | up regulation | induces; also recorded: emergence | induces; also recorded: substantial expansion | significantly increased | significant increase | – | – | – | – | – | – | – | – | – | – | –
Noggin: recombinant Noggin (1967-NG, R&D Systems); secreted protein that binds and antagonises bone morphogenetic proteins (BMPs) (protein, UniProt Q13253 28-232, looked up) Noggin: QHYLHIRPAPSDNLPLVDLIEHPDPIFDPKEKDLNETLLRSLLGGHYDPGFMATSPPEDRPGGGGGAAGGAEDLAELDQLLRQRPSGAMPSEIKGLEFSEGLAQGKKQRLSKKLRRKLQMWLWSQTFCPVLYAWNDLGSRFWPRYVKVGSCFSKRSCSVPEGMVCKPSKSVHLTVLRWRCQRRGGQRCGWIPIQYPIISECKCSC | – | – | – | – | – | – | Inhibition; also recorded: inhibits | enhanced; also recorded: maintained even after 28 days | supressed; also recorded: delayed | increased | increases | reduced; also recorded: reduces the number of Osterix+ cells to control levels | restores | partially restored | partial restoration | restored; also recorded: significantly restores | restores

Source: patent US10053668B2, “Reprogramming bone endothelial cells for use in bone angiogenesis and osteogenesis” (MAX-PLANCK-GESELLSCHAFT ZUR FÖRDERUNG DER WISSENSCHAFTEN …, priority 2013, dated 2018)
